The values below are quoted from earlier work in PMC12756081.

What is called Kd is the free concentration of one partner at which half of the binding sites on the other are occupied at equilibrium, for simple one-to-one binding.

Data set [1] deals with IL-18Rα/IL-18Rβ (Homo sapiens) (UniProt Q13478). The note with it: cited from earlier work.
The next data set deals with IL-18Rα (Homo sapiens) (UniProt Q13478). The note with it: cited from earlier work.
IL-18Rα (Homo sapiens), sequence (Q13478 19-541): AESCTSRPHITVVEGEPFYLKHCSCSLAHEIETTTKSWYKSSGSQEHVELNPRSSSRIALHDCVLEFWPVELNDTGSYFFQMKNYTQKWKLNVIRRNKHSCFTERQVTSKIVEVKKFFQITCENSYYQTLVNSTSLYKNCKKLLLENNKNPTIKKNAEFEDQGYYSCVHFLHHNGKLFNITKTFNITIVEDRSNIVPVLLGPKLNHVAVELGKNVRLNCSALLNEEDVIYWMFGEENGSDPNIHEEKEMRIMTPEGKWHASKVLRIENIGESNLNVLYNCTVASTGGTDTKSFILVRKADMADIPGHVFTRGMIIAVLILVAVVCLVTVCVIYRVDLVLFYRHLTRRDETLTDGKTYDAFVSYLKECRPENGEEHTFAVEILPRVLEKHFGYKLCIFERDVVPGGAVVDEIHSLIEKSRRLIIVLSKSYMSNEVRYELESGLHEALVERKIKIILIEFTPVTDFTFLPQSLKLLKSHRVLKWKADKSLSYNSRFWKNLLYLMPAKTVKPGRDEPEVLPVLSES

IL-18, sequence (Q14116 37-193): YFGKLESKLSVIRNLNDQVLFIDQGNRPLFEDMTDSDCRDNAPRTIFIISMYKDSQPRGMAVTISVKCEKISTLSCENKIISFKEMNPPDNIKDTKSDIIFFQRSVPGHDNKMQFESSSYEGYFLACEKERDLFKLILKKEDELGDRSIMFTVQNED
IL-18Rα/IL-18Rβ (Homo sapiens), sequence (Q13478 19-541, chain 1 of 2): as the sequence (Q13478 19-541) above
IL-18Rα/IL-18Rβ (Homo sapiens), sequence (O95256 20-599, chain 2 of 2, further chain): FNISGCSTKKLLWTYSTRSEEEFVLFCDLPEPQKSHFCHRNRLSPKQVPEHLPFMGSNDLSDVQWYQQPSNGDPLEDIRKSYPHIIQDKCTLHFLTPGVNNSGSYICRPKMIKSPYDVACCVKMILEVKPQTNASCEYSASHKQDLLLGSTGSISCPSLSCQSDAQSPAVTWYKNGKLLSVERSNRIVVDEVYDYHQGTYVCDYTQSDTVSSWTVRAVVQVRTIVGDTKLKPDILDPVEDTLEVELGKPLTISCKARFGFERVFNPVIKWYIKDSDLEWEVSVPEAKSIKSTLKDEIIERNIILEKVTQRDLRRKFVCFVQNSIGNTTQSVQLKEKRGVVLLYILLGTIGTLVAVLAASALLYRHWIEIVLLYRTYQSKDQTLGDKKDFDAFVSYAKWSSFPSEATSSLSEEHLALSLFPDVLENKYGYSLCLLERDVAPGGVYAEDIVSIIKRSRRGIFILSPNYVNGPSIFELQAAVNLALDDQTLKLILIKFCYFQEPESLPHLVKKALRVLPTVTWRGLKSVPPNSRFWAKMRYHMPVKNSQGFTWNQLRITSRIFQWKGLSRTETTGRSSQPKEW

On to IL-18 (from UniProt Q14116), for which the dissociation constant Kd in data set [1] is 1 nM; with IL-18Rα (Homo sapiens) it was 30 nM.
